Laboratory results reported in US20250332297A1, “DLL3-SPECIFIC BINDING CONSTRUCTS AND THEIR USE IN RADIOTHERAPY” (MOLECULAR PARTNERS AG, priority 2024, published 2025).
One block for each molecule: values may come before it.

Key:
[1] = target: T1, Human DLL3-ECD (Homo sapiens, UniProt Q9NYJ7); assay: SPR, immobilized DARPin, binding of human DLL3-ECD (Example 17); conditions: immobilized biotinylated DARPin, DLL3-ECD as analyte, 1:1 Langmuir, Table 19
T1 construct: the extracellular domain of DLL3 (DLL3-ECD) from human, cynomolgus monkey, mouse and pig
T1 sequence (Q9NYJ7 27-492 limits assumed): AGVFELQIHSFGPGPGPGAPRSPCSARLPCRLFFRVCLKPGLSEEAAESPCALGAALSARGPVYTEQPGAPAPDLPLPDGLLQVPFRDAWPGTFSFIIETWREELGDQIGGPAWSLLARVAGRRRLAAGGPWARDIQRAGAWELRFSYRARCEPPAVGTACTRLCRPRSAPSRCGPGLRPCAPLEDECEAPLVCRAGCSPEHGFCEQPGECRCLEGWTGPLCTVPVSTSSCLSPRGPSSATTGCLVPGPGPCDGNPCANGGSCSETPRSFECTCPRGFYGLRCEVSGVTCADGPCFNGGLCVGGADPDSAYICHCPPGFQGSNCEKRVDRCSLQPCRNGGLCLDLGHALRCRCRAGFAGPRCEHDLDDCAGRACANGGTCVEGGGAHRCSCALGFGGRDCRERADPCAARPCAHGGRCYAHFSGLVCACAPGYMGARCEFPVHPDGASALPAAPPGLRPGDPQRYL
Experimental: (§1) Kinetic binding parameters and binding affinities of two domain (2D) ankyrin repeat protein MAM279 and single domain (1 D) ankyrin repeat protein MAM093 to DLL3 from different species were determined. The DLL3-specific ankyrin repeat domain of MAM093 is identical to the DLL3-specific ankyrin repeat domain comprised in MAM279.
(§2) SPR multi-trace analyses were performed similarly as described in Examples 1 and 11. Here, the binding kinetics of immobilized DARPin proteins to the extracellular domain of DLL3 (DLL3-ECD) from human, cynomolgus monkey, mouse and pig were determined. Various concentrations of recombinant DLL3-ECD starting from 500 nM were applied to immobilized biotinylated 2D DARPin (MAM279; SEQ ID NO: 11) or 1 D DARPin (MAM093; SEQ ID NO: 1) (both with a Glycine-Serine (GS) at the N-terminal end) for on-rate and off-rate measurements.
(§3) Streptavidin SAHC200M (Xantec) SPR chip was conditioned according to the manufacturer's protocol. Biotinylated DARPins were immobilized to a coating density of 27 resonance units (RU) for 1D DARPin and 25 RU for 2D DARPin. All analytes (3-fold dilution ranging from 500-6.17 nM) were injected in succession for 240 s and dissociation was recorded for 10800 s using a constant flow of 100 μl/min.

[2] = target: Cyno DLL3-ECD; assay: SPR, immobilized DARPin, binding of cyno DLL3-ECD (Example 17); set-up: species or system cynomolgus monkey; conditions: immobilized biotinylated DARPin, DLL3-ECD as analyte, 1:1 Langmuir, Table 19
Experimental: as §1, §2, §3

[3] = target: T2, mouse DLL3-ECD (Mus musculus, UniProt O88516); assay: SPR, immobilized DARPin, binding of mouse DLL3-ECD (Example 17); conditions: immobilized biotinylated DARPin, DLL3-ECD as analyte, 1:1 Langmuir, Table 20
T2 construct: the extracellular domain of DLL3 (DLL3-ECD) from human, cynomolgus monkey, mouse and pig
T2 sequence (O88516 33-490 limits assumed): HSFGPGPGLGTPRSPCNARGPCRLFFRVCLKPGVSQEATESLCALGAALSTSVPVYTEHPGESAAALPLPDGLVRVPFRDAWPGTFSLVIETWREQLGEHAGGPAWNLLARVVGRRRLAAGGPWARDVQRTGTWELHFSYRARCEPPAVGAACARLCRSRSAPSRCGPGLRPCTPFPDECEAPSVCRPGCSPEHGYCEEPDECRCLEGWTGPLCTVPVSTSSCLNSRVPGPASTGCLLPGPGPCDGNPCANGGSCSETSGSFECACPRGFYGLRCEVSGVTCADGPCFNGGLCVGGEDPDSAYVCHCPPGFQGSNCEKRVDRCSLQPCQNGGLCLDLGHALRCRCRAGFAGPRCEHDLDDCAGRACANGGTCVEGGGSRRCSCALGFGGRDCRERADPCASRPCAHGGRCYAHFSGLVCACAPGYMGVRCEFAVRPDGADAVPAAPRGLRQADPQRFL
Experimental: as §1, §2, §3

[4] = target: pig DLL3-ECD; assay: SPR, immobilized DARPin, binding of pig DLL3-ECD (Example 17); conditions: immobilized biotinylated DARPin, DLL3-ECD as analyte, 1:1 Langmuir, Table 20
Experimental: as §1, §2, §3

[5] = target: human serum albumin (Homo sapiens, UniProt P02768); conditions: class in words (Low, Mid, High); Table 5
Experimental: For SPR analysis, the free Cysteine of the 2D DARPins was capped with Iodoacetamide (IAM). A surface plasmon resonance (SPR) assay was then used to determine the binding kinetics of the three 2D DARPins to human or mouse serum albumin. Various concentrations of 2D DARPins starting from 2000 nM were applied to immobilized human serum albumin (HSA) or mouse serum albumin (MSA) for on-rate and off-rate measurements.
The data were generated using a BioRad ProteOn instrument with SPR running buffer (PBS, pH 7.4 containing 0.05% Tween 20®). A HC200M chip (Xantec) was conditioned according to the manufacturer's protocol. The chip was coated with purified human serum albumin (HSA, CSL) or mouse serum albumin (MSA, Sigma-Aldrich) in NaOAc pH5.0 to reach a signal intensity of ˜380 (HSA) or ˜630 (MSA) RU for the analysis of Intermediate HSA affinity 2D DARPin and High HSA affinity 2D DARPin; ˜1125 (HSA) or ˜1965 (MSA) for the analysis of Low HSA affinity 2D DARPin. All analytes (3-fold dilution ranging from 2000-24.69 nM) were injected in succession for 240 s (50 μl/min) and dissociation was recorded for 600 s (50 μl/min). The data was double referenced (control spot and buffer injection) and fitted to a 1:1 Langmuir model. The obtained SPR traces were used to determine binding parameters.

[6] = target: T3, human DLL3 and human serum albumin (Homo sapiens, UniProt P02768+Q9NYJ7); assay: SPR simultaneous binding to DLL3 and serum albumin; conditions: immobilized hDLL3-ECD, 150 nM conjugate then 1000 nM HSA
T3 construct: Biotinylated recombinant human DLL3-ECD was immobilized
Experimental: Studies were performed to determine whether a two domain (2D) ankyrin repeat protein conjugate, as described herein, can bind simultaneously to DLL3 and serum albumin. The specific conjugate tested was MAM279 (SEQ ID NO: 11), with a Glycine-Serine (GS) at its N-terminal end and a tag (SEQ ID NO: 10) at its C-terminal end (resulting in GS-MAM279-tag (SEQ ID NO: 15)), conjugated to the chelator DOTAM as described in Example 3.
An SPR assay was used to assess the concurrent binding of DARPin (MAM279) conjugate to both human DLL3 and human serum albumin (HSA). […] A streptavidin SAHC200M (Xantec) sensor chip was conditioned according to the manufacturer's protocol. Biotinylated recombinant human DLL3-ECD was immobilized to a coating density of 1350-1470 RU. A single injection of 150 nM DARPin conjugate was performed, with an association time of 240 s using a constant flow of 100 μl/min. After a lag time of ˜300 seconds, HSA was injected at 1000 nM with an association time of 240 seconds and a dissociation time of 900 seconds using a constant flow of 100 μl/min. Control lanes were used where only one of the analytes or only PBST was injected. The signal was double referenced (interspot and buffer injection). The figure (FIG. 17) was prepared with GraphPad Prism 10.2.3.

[7] = tested on: hDLL3-MC38 tumors; assay: Efficacy (tumor growth) in hDLL3-MC38 tumor model; format: in vivo, mouse; conditions: tumor volume in mm^3, hDLL3-MC38
Experimental: To determine the efficacy of radio-labelled (Pb-212) DARPin (MAM160) conjugate in inhibiting the growth of tumors that express DLL3, different dose regimens (single or repeated dose) of the conjugate were tested in a mouse tumor model (hDLL3-MC38).
The first injections were done 7 days after the xenografts. Animals were under observation daily and 3× per week tumors were measured by caliper. Animals were sacrificed when tumors reached 1000 mm^3 or if termination criteria were met. The data were expressed as average+/−SEM of tumor volume in mm^3.

Kd [1]: 0.127 nM | Koff Human DLL3-ECD [1]: 1.31e-05 s⁻¹ | Kon Human DLL3-ECD [1]: 102000 M⁻¹ s⁻¹ | Kd [2]: 8.88 nM | Koff Cyno DLL3-ECD [2]: 0.000939 s⁻¹ | Kon Cyno DLL3-ECD [2]: 106000 M⁻¹ s⁻¹ | Kd [3]: 83.9 nM | Koff mouse DLL3-ECD [3]: 0.00282 s⁻¹ | Kon mouse DLL3-ECD [3]: 33700 M⁻¹ s⁻¹ | Kd [4]: 17.3 nM | Koff pig DLL3-ECD [4]: 0.000319 s⁻¹ | Kon pig DLL3-ECD [4]: 18400 M⁻¹ s⁻¹
B1: MAM279: Two domain (2D) ankyrin repeat protein: serum albumin-specific domain (SEQ ID NO: 7), PT linker, DLL3-specific domain of MAM093 (protein)
chain: DLGKKLLEAARAGQDDEVRELLKAGADVNAKDYFSHTPLHLAARNGHLKIVEVLLKAGADVNAKDFAGKTPLHLAADAGHLEIVEVLLKAGADVNAQDIFGKTPADIAADAGHEDIAEVLQKAAGSPTPTPTTPTPTPTTPTPTPTGSDLGKKLLAAAAQGQDDEVRELLKAGANVNAKDLFGYTPLHLAAWRGHLEIVEVLLKAGADVNAKDAAGETPLHLAAWFGHLEIVEVLLKAGADVNAQDLQGKTPADLAAKEGHEDIAEVLQKAA
modifications: Ankyrin repeat protein (MAM279)

HSA affinity [5]: High
B2: MAM160: Two domain (2D) ankyrin repeat protein: serum albumin-specific domain (SEQ ID NO: 7), PT linker, DLL3-specific domain MAM120 (protein)
chain: DLGKKLLEAARAGQDDEVRELLKAGADVNAKDYFSHTPLHLAARNGHLKIVEVLLKAGADVNAKDFAGKTPLHLAADAGHLEIVEVLLKAGADVNAQDIFGKTPADIAADAGHEDIAEVLQKAAGSPTPTPTTPTPTPTTPTPTPTGSDLGTKLLSAAADGQDDEVRELLQAGADVNAKDLFGYTPLHLAAWRGHLEIVEVLLEAGADVNAKDAAGLTPLHLAAWFGHLEIVEVLLEAGADVNAQDVQGVTPADLAAKEGHEDIAEVLQQAA
modifications: Ankyrin repeat protein (MAM160)

B3: MAM279-DOTAM: GS-MAM279-tag (SEQ ID NO: 15) conjugated to the chelator DOTAM via C-terminal tag and maleimide connector, no radionuclide (conjugate)
chain: GSDLGKKLLEAARAGQDDEVRELLKAGADVNAKDYFSHTPLHLAARNGHLKIVEVLLKAGADVNAKDFAGKTPLHLAADAGHLEIVEVLLKAGADVNAQDIFGKTPADIAADAGHEDIAEVLQKAAGSPTPTPTTPTPTPTTPTPTPTGSDLGKKLLAAAAQGQDDEVRELLKAGANVNAKDLFGYTPLHLAAWRGHLEIVEVLLKAGADVNAKDAAGETPLHLAAWFGHLEIVEVLLKAGADVNAQDLQGKTPADLAAKEGHEDIAEVLQKAAGSGSC
modifications: DOTAM chelator via maleimide on C-terminal tag; Ankyrin repeat protein with tag (GS-MAM279-tag)
simultaneous binding to DLL3 and serum albumin [6]: can bind simultaneously to human DLL3 and human serum albumin

B4: Rova: Rova antibody, DLL3-binding benchmark antibody used as positive control and comparison (antibody, chains of the INN, looked up, V domains shown)
VH: QVQLVQSGAEVKKPGASVKVSCKASGYTFTNYGMNWVRQAPGQGLEWMGWINTYTGEPTYADDFKGRVTMTTDTSTSTAYMELRSLRSDDTAVYYCARIGDSSPSDYWGQGTLVTVSS
VL: EIVMTQSPATLSVSPGERATLSCKASQSVSNDVVWYQQKPGQAPRLLIYYASNRYTGIPARFSGSGSGTEFTLTISSLQSEDFAVYYCQQDYTSPWTFGQGTKLEIK
Mean Diff. ([7]; Dunnett's multiple comparisons test, Buffer vs. 3 × 10μCi (1 week apart)): 251.6 | Mean Diff. ([7]; Tukey's multiple comparisons test, Buffer vs. 3 × 10μCi): 251.6
